The record followed here is US5871732.

For assay [1], the target named is human CD4 displayed on the surface of CD4+ cells (human) (UniProt P01730).
The target in assay [2] is recombinant soluble CD4 (human CD4 AA1-AA375) (human) (UniProt P01730). The assay can be described thus: RIA, immobilised antibody; 125I-rsCD4 preincubated with the soluble competitor OKT4.
For assay [3] the target is unchanged. Kind of assay: RIA, 125I-rsCD4 preincubated with the soluble antibody; competitor: immobilised 5A8.
For assay [4] the target is unchanged. Kind of assay: RIA, immobilised antibody; 125I-rsCD4 preincubated with the soluble competitor Leu3A.
Assay [5] shares this target. The assay can be described thus: RIA, immobilised antibody; 125I-rsCD4 preincubated with the soluble competitor OKT4A.
Assay [6] deals with CD4-V1 polypeptide (AA1-AA113 and/or AA1-AA111 of human CD4) (human) (UniProt P01730). The assay can be described thus: RIA, antibody captured on goat anti-mouse IgG; CD4-V1 (5 µg/ml) competing with 125I-rsCD4.
The target in assay [7] is CD4-V1V2 polypeptide (AA1-AA180 of human CD4) (human) (UniProt P01730). The assay can be described thus: RIA, antibody captured on goat anti-mouse IgG; CD4-V1V2 (5 µg/ml) competing with 125I-rsCD4.
The target of assay [8] is recombinant soluble CD4 (human CD4 AA1-AA375) (human) (UniProt P01730). The assay can be described thus: RIA, immobilised antibody; 125I-rsCD4 preincubated with the competitor HIV r-gp120 (2.5 µg/ml).
Assay [9] addresses mouse/human substitution mutant of rsCD4 at AA121-AA124 (V2) (human) (UniProt P01730). Kind of assay: mutant rsCD4 (1 µg/ml) as competitor of OKT4 binding to CD4+ cells.
For assay [10], the target named is mouse/human substitution mutant of rsCD4 at AA127-AA134 (V2) (human) (UniProt P01730). The description is as above.
The target in assay [11] is mouse/human substitution mutant of rsCD4 at AA165 (V2) (human) (UniProt P01730). The assay is described as above.
Assay [12] concerns the target mouse/human substitution mutant of rsCD4 at AA220-AA226 (V3) (human) (UniProt P01730). The description is as above.
In assay [13] the target is mouse/human substitution mutant of rsCD4 at AA240-AA252 (V3) (human) (UniProt P01730). The description is as above.
The target of assay [14] is mouse/human substitution mutant of rsCD4 at AA60 (V1) (human) (UniProt P01730). Described as above.

For “Leu3A, CD4 V1-specific monoclonal antibody (Becton Dickinson)”, the concentration inhibiting syncytia formation 50% in assay [1] came to 0.02 µg/mL. Besides, the % Inhibition rsCD4 Binding By OKT4 in [2] is -10.3%. The % Inhibition rsCD4 Binding in assay [3] amounted to 0%. In assay [4], the % Inhibition rsCD4 Binding By Leu 3A turned out to be 85.8%. For the same substance, the % Inhibition rsCD4 Binding By OKT4A in assay [5] was found to be 73.9%. In [6], the CD4-V1 % Inhibition of rsCD4 Binding was determined as 88.2%. For the same substance, in assay [7], the CD4-V1V2 % Inhibition of rsCD4 Binding was found to be 94%. Moreover, the HIV r-gp120 % Inhibition rsCD4 Binding in assay [8] was found to be 85.1%.
With “OKT4, CD4 V3V4-specific anti-CD4 mouse monoclonal antibody (Ortho Diagnostic Systems)”, the % blocking of OKT4 binding to CD4+ cells in assay [9], in [10], in assay [11], in [12], in [13] and in assay [14] was 60% throughout. Also, the % Inhibition rsCD4 Binding By OKT4 in assay [2] stood at 91.3%. In addition, the % Inhibition rsCD4 Binding in [3] stood at 4%. In addition, the % Inhibition rsCD4 Binding By Leu 3A in [4] came out at 8.4%. Further, the % Inhibition rsCD4 Binding By OKT4A in assay [5] turned out to be 3.6%. The CD4-V1 % Inhibition of rsCD4 Binding in assay [6] is -5.5%. Further, the CD4-V1V2 % Inhibition of rsCD4 Binding in assay [7] came out at 14.4%. The HIV r-gp120 % Inhibition rsCD4 Binding in assay [8] was -8.2%.
Consider “OKT4A, CD4 V1-specific anti-CD4 mouse monoclonal antibody (Ortho Diagnostic Systems)”, for which, in [2], the % Inhibition rsCD4 Binding By OKT4 is -26.8%. Besides, the % Inhibition rsCD4 Binding By Leu 3A in [4] was 62%. Besides, the % Inhibition rsCD4 Binding By OKT4A in assay [5] was 68.5%. For the same substance, the CD4-V1 % Inhibition of rsCD4 Binding in [6] stood at 87.3%. Further, in assay [7], the CD4-V1V2 % Inhibition of rsCD4 Binding is 95.5%. Further, in assay [8], the HIV r-gp120 % Inhibition rsCD4 Binding stood at 66.1%.
